{"source": "patent US9994644B2", "about": "“mAB 2 anti-Met antibody” (Agency for Science, Technology and Research, priority 2013, dated 2018)", "molecules": {"B1": {"name": "mAb 2: murine bivalent anti-α-chain c-Met monoclonal antibody, IgG1, kappa; CDRs SEQ ID NO: 2-7; epitope IEE and CPDC (antibody, listed as Homo sapiens)", "heavy": "QVQLKESGGGLVQPGGSLTLSCATSGFTFTDHYMSWVRQPPGKALEWLAFIRNKAKGYTTEYNASVRGRFTISRDNSQNIVYLQMNTLRTEDSATYYCARDGVGIAYWGQTLVTVSAAKTTPPSVYPLAP", "light": "SIVMTQSPLSLPVSLGDQASISCRSSQSLENINGNTYKNWYFQKPGQSPQLLIYRVSNRVSGVLDRFSGSGSGTDFTLKITRVEAEDLGVYFCLQVTHVPWTFGGGTKLEIKRADAAPTKSIS"}}, "assay_type_in_all_cases": "cell-based, human", "key": {"SNU-5 cells [1]": {"test_system": "SNU-5 cells", "assay": "Immunofluorescence of antibody internalisation", "conditions": "SNU-5, 10 μg/mL mAb", "protocol": "In order to determine if mAb 2 and 13 were internalised into the cell upon antibody binding, SNU-5 cells were incubated with 10 μg/mL of anti-α-chain monoclonal antibody. Monoclonal antibody treated cells were fixed and permeablised. Bound and internalised antibody was detected by anti-mouse Alexa Fluor®488-conjugated secondary antibody. Antibody localisation was observed by confocal microscopy.\n10 μg/mL of anti-α-chain monoclonal antibody were incubated with live SNU-5 cells for 1 hr at 4° C. or 37° C. Antibody-treated cells were washed once with PBS and deposited onto polylysine-coated slides (Thermo Scientific, #5991056) using the Thermo Shandon Cytospin 3 Cytofuge (Thermo Scientific) at 800 rpm for 5 mins and fixed immediately in 4% paraformaldehyde. Cells were then blocked and permeablised in PBS containing 0.4% Triton X-100 and 5% BSA. Bound anti-α-chain c-Met antibodies were detected using anti-mouse Alexa Fluor®488-conjugated secondary antibody. Phallodin was added together with the secondary antibodies. Cells were washed before staining with 4′,6′-diamidino-2-phenylindole (DAPI) and mounted with Hydromount (National Diagnostics, U.S.A.) containing 2.5% DABCO (1,4-Diazabicyclo-[2.2.2]octane) (Sigma-Aldrich) as an anti-bleaching agent Immunofluorescence was observed using Nikon Eclipse E600 microscope."}, "SNU-5 cells [2]": {"test_system": "SNU-5 cells", "assay": "Cell proliferation by CellTracker Green BODIPY dye retention", "conditions": "SNU-5, 10 μg/mL mAb, 6 days", "protocol": "CellTracker BODIPY dye is a membrane permeable dye that enters cells freely. Once in the cell, the dye is converted to a membrane impermeable product which labels the cell green. The dye is passed on to dividing daughter cells but is not transferable to neighbouring cells. Dividing cells would fail to retain the green dye as it is being diluted to progeny cells. Cells were treated with 10 μg/mL of monoclonal antibodies for 6 days and dye retention in cells was analysed by flow cytometry.\nSNU-5 cells were stained with 5 μM of CellTracker BODIPY dye for 30 mins. Stained cells were seeded and treated with anti-α-chain c-Met monoclonal antibodies for 6 days. Cells were harvested and dye retention in live cells were analysed by flow cytometry."}, "SNU-5 cells [3]": {"test_system": "SNU-5 cells", "assay": "Annexin V staining (cell death)"}}, "note": "Entries after “also recorded” stand apart in the source; their conditions may differ."}
{"molecule": "B1", "values": [{"measurement": "internalisation into the cell", "setting": "SNU-5 cells [1]", "result": "internalised upon binding to c-Met; also recorded: internalised into the tumour cell"}, {"measurement": "antibody localisation at 4° C.", "setting": "SNU-5 cells [1]; 1 hr, 4° C.", "result": "localised on the cell membrane with diffused cytoplasmic staining"}, {"measurement": "antibody localisation at 37° C.", "setting": "SNU-5 cells [1]; 1 hr, 37° C.", "result": "increase staining was observed in the cytoplasm"}, {"measurement": "CellTracker Green BODIPY fluorescence retention", "setting": "SNU-5 cells [2]", "result": "retained significant levels of green fluorescence"}, {"measurement": "cell death (annexin V staining)", "setting": "SNU-5 cells [3]", "result": "do not cause cell death"}]}
